From patent US20180291082A1 (IMMATICS BIOTECHNOLOGIES, published 2018)

These binders were tested against T1, HLA-B*44:02 (human) (assay: UV-ligand exchange, anti-b2m ELISA; exchange yield grade (+ >10%, ++ >20%, +++ >50, ++++ >75%)).
T1 construct: Peptide-receptive MHC monomer made by UV cleavage of a UV-sensitive peptide
Text: (§1) Candidate peptides for T cell based therapies according to the present invention were further tested for their MHC binding capacity (affinity). The individual peptide-MHC complexes were produced by UV-ligand exchange, where a UV-sensitive peptide is cleaved upon UV-irradiation, and exchanged with the peptide of interest as analyzed. Only peptide candidates that can effectively bind and stabilize the peptide-receptive MHC molecules prevent dissociation of the MHC complexes. To determine the yield of the exchange reaction, an ELISA was performed based on the detection of the light chain (β2m) of stabilized MHC complexes. The assay was performed as generally described in Rodenko et al. (Rodenko et al., 2006).
(§2) 96 well MAXISorp plates (NUNC) were coated over night with 2 ug/ml streptavidin in PBS at room temperature, washed 4× and blocked for 1 h at 37° C. in 2% BSA containing blocking buffer. Refolded HLA-A*02:01/MLA-001 monomers served as standards, covering the range of 15-500 ng/ml. Peptide-MHC monomers of the UV-exchange reaction were diluted 100-fold in blocking buffer. Samples were incubated for 1 h at 37° C., washed four times, incubated with 2 ug/ml HRP conjugated anti-β2m for 1 h at 37° C., washed again and detected with TMB solution that is stopped with […]. Absorption was measured at 450 nm. Candidate peptides that show a high exchange yield (preferably higher than 50%, most preferred higher than 75%) are generally preferred for a generation and production of antibodies or fragments thereof, and/or T cell receptors or fragments thereof, as they show sufficient avidity to the MHC molecules and prevent dissociation of the MHC complexes.

Row | Binder | peptide exchange yield [%]
1 | AEAVLKTLQEL | 50 to 75
2 | AEQTGTWKL | 20 to 50
3 | EEAKQVLFL | 20 to 50
4 | FELPTGAGL | 20 to 50
5 | GEATLQRIY | 10 to 20
6 | GEELGFASL | 20 to 50
7 | GEHTSKATL | 20 to 50
8 | KEFNLQNMGL | 50 to 75
9 | KENFAGEATL | 20 to 50
10 | KESQLPTVM | 20 to 50
11 | QEVLLQTFL | > 75
12 | SEPINIIDAL | 20 to 50
13 | TEATMTFKY | 50 to 75
14 | AEHDAVRNAL | 50 to 75
15 | YEVDTVLRY | 20 to 50
16 | SENIVIQVY | 20 to 50
17 | TEKEMIQKL | 20 to 50
18 | AEETCAPSV | 20 to 50
19 | TTMDQKSLW | 10 to 20
20 | AEQPDGLIL | 20 to 50
21 | LQEEKVPAIY | 10 to 20
22 | NEINEKIAPSF | 50 to 75
23 | AENAEYLRV | 20 to 50
24 | KEITGFLLI | 50 to 75
25 | AEERAEAKKKF | 20 to 50
26 | NEISTFHNL | 50 to 75

Row | Binder | peptide exchange yield [%]
27 | SEVPVARVW | > 75
28 | SESAVFHGF | 50 to 75
29 | SEAFPSRAL | 50 to 75
30 | EELLHGQLF | 20 to 50
31 | TEHTQSQAAW | 50 to 75
32 | AEKQTPDGRKY | 20 to 50
33 | KESDGFHRF | 50 to 75
34 | AENLFRAFL | 50 to 75
35 | AEIHTAEI | 20 to 50
36 | AEKDGKLTDY | 20 to 50
37 | DESEKTTKSF | 20 to 50
38 | EEESLLTSF | 50 to 75
39 | EEFETLKEF | 20 to 50
40 | EEKLIIQDF | 20 to 50
41 | LEMPHYSTF | > 75
42 | SENPETITY | 50 to 75
43 | TEVLDSHIHAY | 20 to 50
44 | HELENHSMY | 20 to 50
45 | REAEPIPKM | 20 to 50
46 | EEAPLVTKAF | 20 to 50
47 | IEALLESSL | 20 to 50
48 | MELLLVNKL | 50 to 75
49 | DEYLIPQQGF | 50 to 75
50 | EEVDVPIKLY | 20 to 50
51 | ARLTPIPFGL | 10 to 20

What follows are binders tested against T2, HLA-A*03:01 (human) in the same assay as above.
T2 construct: Peptide-receptive MHC monomer made by UV cleavage of a UV-sensitive peptide
Text: as §1, §2

Row | Binder | peptide exchange yield [%]
52 | FSLAGALNAGFK | 20 to 50
53 | RMPPPLPTR | 20 to 50
54 | KLYPTYSTK | 20 to 50
